Assays:
Assay type in all cases: biochemical
[1] = Specific activity of the purified MAO mutant active fraction against amylamine; settings: active fraction after QSepharose, protein 1 mg·ml^−1
Protocol: LB medium (6×300 ml) containing ampicillin (100 μg·ml^−1) in 1 L baffled flasks was inoculated with a single colony of monoamine oxidase mutant from an LB agar plate. Cultures were incubated at 30° C. for 22 hours (OD600˜3.6) then harvested and washed with phosphate buffer (50 mM, pH 8) to yield a yellow-brown pellet (11.2 g).
The pellet was resuspended in Tris/HCl buffer (25 mM, pH 7.8, 30 ml) and sonicated on ice (30 s on, 30 s off for 10 minutes). The suspension was then centrifuged (20,000 rpm, 4° C.) until clear supernatant was obtained and the supernatant dialysed against Tris/HCl buffer (25 mM, pH 7.8). The cell free extract was filtered through 0.45 μm sterile membrane and chromatographed on a QSepharose anion exchange column. Fractions were assayed using colorimetric hydrogen peroxide based assay and active fractions were stored at −80° C. The active fraction has a protein content of 1 mg·ml^−1, and a specific activity of 0.193 U·mg^−1 against amylamine. […]
The spectrophotometer was blanked against assay mixture and HRP. Enzyme was added and the absorbance at 500 nm measured at 3 s intervals for a 10 minute period.

[2] = Cell free extracts assayed towards L-AMBA; settings: 240 minutes
Protocol: To 895 ul Assay Mixture was Added: • 5 μl HRP (Sigma, P6782) (1 mg/ml)
Sample (100 μl) was added and absorbance at 510 nm measured after 24 hours against a control without sample.
This was achieved by incubating 50 μl of each sample for 240 minutes and specific activities were determined. (Table 4)

[3] = Specific activities of partially purified MAO WT and MAOArg259/260 towards amylamine
Protocol: MAO WT and MAOArg259/260 were partially purified from recombinant E. coli BL21(DE3) harbouring a pET16b carrying the corresponding mao-n gene. Cell free extracts were prepared by sonication and the specific activities of MAO WT and MAOArg259/260 towards AA were measured for both the soluble and insoluble fractions. (Table 3)

Row | Molecule | specific activity against amylamine [1] [U·mg^−1] | ΔAbs 510 nm ([2]; 50 μl sample) | Soluble fraction specific activity [2] | Total activity [3] [U] | Insoluble fraction specific activity ([3]; insoluble fraction) [U · mg^−1] | Soluble fraction specific activity ([3]; soluble fraction) [U · mg^−1]
1 | MAO mutant: A. niger monoamine oxidase variant with serine replacing asparagine at position 336 (SEQ ID NO: 2) (protein, Variant monoamine oxidase enzyme generated by direct evolution) MTSRDGYQWTPETGLTQGVPSLGVISPPTNIEDTDKDGPWDVIVIGGGYCGLTATRDLTVAGFKTLLLEARDRIGGRSWSSNIDGYPYEMGGTWVHWHQSHVWREITRYKMHNALSPSFNFSRGVNHFQLRTNPTTSTYMTHEAEDELLRSALHKFTNVDGTNGRTVLPFPHDMFYVPEFRKYDEMSYSERIDQIRDELSLNERSSLEAFILLCSGGTLENSSFGEFLHWWAMSGYTYQGCMDCLISYKFKDGQSAFARRFWEEAAGTGRLGYVFGCPVRSVVNERDAARVTARDGREFVAKRVVCTIPLNVLSTIQFSPALSTERISAMQAGHVSMCTKVHAEVDNMDMRSWTGIAYPFNKLCYAIGDGTTPAGNTHLVCFGTDANHIQPDEDVRETLKAVGQLAPGTFGVKRLVFHNWVKDEFAKGAWFFSRPGMVSECLQGLREKHGGVVFANSDWALGWRSFIDGAIEEGTRAARVVLEELGTKREVKARL | 0.193 | – | – | – | – | –
2 | MAO WT: wild-type Aspergillus niger monoamine oxidase (SEQ ID NO:1) expressed in E. coli BL21(DE3) (protein, Aspergillus niger) MTSRDGYQWTPETGLTQGVPSLGVISPPTNIEDTDKDGPWDVIVIGGGYCGLTATRDLTVAGFKTLLLEARDRIGGRSWSSNIDGYPYEMGGTWVHWHQSHVWREITRYKMHNALSPSFNFSRGVNHFQLRTNPTTSTYMTHEAEDELLRSALHKFTNVDGTNGRTVLPFPHDMFYVPEFRKYDEMSYSERIDQIRDELSLNERSSLEAFILLCSGGTLENSSFGEFLHWWAMSGYTYQGCMDCLISYKFKDGQSAFARRFWEEAAGTGRLGYVFGCPVRSVVNERDAARVTARDGREFVAKRVVCTIPLNVLSTIQFSPALSTERISAMQAGHVNMCTKVHAEVDNMDMRSWTGIAYPFNKLCYAIGDGTTPAGNTHLVCFGTDANHIQPDEDVRETLKAVGQLAPGTFGVKRLVFHNWVKDEFAKGAWFFSRPGMVSECLQGLREKHGGVVFANSDWALGWRSFIDGAIEEGTRAARVVLEELGTKREVKARL | – | 0.06 | 3.6 × 10^−5 U · mg^−1 | 0.57 | 0.33 | 0.23

Reference: patent publication US8178324B2, “Deracemisation of amines” (Ingenza Limited, priority 2002, dated 2012)
